Measured values from patent US20180086841A1 (Merck Sharp & Dohme, published 2018).

Legend:
Test in all cases: flow cytometry on CHO-K1 transfectants;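 further: Anti-hCD27 antibodies tested on transiently transfected CHO-K1 cells bearing hCD27 alanine mutants, 30 min at 4 °C primary incubation, FITC readout excluding debris, dead cells and doublets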
Q15A = target: T1, Q15A
T1 construct: also called hCD27 Q15A
T1 receptor chain: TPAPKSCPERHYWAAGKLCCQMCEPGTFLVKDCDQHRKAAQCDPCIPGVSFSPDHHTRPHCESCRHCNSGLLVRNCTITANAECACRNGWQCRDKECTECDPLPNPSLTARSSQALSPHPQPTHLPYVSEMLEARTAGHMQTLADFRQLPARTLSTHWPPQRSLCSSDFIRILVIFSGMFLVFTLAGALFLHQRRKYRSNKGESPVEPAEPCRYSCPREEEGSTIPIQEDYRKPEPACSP
Method: (§1) The hCD27 variants that were tested are listed. Amino acids correspond to the UniProt P26842-1 sequence. Amino acids 1-20 constitute the signal peptide. Binding is expressed as the geometric mean of the FITC signal, relative to antibody binding to hCD27, which was set at 100%.
(§2) The ability of several anti-hCD27 antibodies to bind to a series of hCD27 alanine mutants was determined using CHO-K1 cells, transiently transfected pCI-neo empty vector, pCI-neo.hCD27 and several pCI-neo.CD27Ala mutant constructs.
(§3) Detached cells were transferred to 96 wells round-bottomed well plates at approximately 1.2×10⁵ cells/well. After spinning down the cells, discarding the supernatants and re-suspending the cells in the residual volume, the primary antibodies were added and incubated for 30 minutes at 4° C. Cells were washed three times with DPBS/BSA 1%, followed by centrifugation, discarding of the supernatants and re-suspension in the residual volume. […] After washing once, antibody binding was detected using the HTS plate reader (FACS Canto II) and FlowJo software for data analysis. Debris, dead cells and doublets were excluded from the analysis. Binding was expressed as the geometric mean of the FITC signal, relative to antibody binding to hCD27, which was set at 100%.

G16A = target: T2, G16A
T2 construct: also called hCD27 G16A
T2 receptor chain: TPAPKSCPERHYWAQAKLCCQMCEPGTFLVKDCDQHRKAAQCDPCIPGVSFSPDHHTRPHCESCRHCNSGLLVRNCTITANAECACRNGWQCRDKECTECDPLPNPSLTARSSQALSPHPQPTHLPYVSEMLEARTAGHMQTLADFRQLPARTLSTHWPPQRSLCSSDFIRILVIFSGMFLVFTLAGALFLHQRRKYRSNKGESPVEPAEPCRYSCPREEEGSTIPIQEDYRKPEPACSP
Method: as §1, §2, §3

F28A = target: T3, F28A
T3 construct: also called hCD27 F28A
T3 receptor chain: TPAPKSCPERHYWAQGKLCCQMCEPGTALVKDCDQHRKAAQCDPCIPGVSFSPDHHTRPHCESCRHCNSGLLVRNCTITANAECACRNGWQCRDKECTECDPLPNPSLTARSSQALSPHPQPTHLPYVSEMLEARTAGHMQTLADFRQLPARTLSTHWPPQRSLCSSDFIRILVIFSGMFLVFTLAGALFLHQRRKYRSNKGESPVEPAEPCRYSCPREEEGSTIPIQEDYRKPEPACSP
Method: as §1, §2, §3

V30A = target: T4, V30A
T4 construct: also called hCD27 V30A
T4 receptor chain: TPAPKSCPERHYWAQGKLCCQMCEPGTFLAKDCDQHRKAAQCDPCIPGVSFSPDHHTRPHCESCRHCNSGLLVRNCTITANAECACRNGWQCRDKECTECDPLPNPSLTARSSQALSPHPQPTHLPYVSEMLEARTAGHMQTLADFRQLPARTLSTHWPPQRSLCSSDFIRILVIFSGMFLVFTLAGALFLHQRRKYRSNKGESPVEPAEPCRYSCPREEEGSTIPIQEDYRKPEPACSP
Method: as §1, §2, §3

R37A = target: T5, R37A
T5 construct: also called hCD27 R37A
T5 receptor chain: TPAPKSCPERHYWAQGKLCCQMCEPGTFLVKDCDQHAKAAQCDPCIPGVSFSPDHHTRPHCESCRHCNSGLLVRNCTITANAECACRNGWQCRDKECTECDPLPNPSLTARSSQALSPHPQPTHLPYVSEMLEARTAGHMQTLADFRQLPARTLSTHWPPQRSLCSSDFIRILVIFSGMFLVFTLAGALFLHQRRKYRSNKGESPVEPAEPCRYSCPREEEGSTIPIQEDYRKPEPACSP
Method: as §1, §2, §3

I46A = target: T6, I46A
T6 construct: also called hCD27 I46A
T6 receptor chain: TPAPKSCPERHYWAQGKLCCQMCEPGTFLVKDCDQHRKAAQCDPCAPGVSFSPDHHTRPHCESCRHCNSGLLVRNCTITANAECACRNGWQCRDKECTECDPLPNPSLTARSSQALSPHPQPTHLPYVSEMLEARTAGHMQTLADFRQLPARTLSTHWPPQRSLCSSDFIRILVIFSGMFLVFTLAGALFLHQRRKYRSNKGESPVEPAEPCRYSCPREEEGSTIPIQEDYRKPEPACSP
Method: as §1, §2, §3

N88A = target: T7, N88A
T7 construct: also called hCD27 N88A
T7 receptor chain: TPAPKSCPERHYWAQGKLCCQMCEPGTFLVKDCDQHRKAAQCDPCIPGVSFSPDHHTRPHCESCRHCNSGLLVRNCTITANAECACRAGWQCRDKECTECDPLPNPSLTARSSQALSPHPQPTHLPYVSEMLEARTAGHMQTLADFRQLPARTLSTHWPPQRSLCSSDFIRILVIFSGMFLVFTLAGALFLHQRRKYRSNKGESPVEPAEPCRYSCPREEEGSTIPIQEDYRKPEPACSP
Method: as §1, §2, §3

Q91A = target: T8, Q91A
T8 construct: also called hCD27 Q91A
T8 receptor chain: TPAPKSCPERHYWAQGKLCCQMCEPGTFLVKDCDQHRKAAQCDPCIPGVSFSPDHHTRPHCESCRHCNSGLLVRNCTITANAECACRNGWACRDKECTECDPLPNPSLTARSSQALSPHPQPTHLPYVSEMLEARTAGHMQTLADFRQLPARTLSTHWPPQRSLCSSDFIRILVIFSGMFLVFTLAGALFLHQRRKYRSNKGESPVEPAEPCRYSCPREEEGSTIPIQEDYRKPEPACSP
Method: as §1, §2, §3

R93A = target: T9, R93A
T9 construct: also called hCD27 R93A
T9 receptor chain: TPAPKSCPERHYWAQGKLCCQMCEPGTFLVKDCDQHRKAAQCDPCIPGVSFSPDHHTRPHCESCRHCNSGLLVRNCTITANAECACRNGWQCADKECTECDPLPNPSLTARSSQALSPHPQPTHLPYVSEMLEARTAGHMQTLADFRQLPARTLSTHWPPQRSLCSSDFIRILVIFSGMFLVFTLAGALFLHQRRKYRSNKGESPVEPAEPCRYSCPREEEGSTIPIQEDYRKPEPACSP
Method: as §1, §2, §3

E9A = target: T10, E9A
T10 construct: also called hCD27 E9A
T10 receptor chain: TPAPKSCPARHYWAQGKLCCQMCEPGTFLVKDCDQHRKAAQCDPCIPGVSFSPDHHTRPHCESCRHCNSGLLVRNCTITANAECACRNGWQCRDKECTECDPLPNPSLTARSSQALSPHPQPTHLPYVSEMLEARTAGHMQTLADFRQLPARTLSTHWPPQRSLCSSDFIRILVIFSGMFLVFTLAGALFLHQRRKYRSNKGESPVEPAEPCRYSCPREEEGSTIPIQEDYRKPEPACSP
Method: as §1, §2, §3

binding, WT hCD27 = 100 (GM FITC) (Q15A): 98.6% | binding, WT hCD27 = 100 (GM FITC) (G16A): 141% | binding, WT hCD27 = 100 (GM FITC) (F28A): 59.4% | binding, WT hCD27 = 100 (GM FITC) (V30A): 82.6% | binding, WT hCD27 = 100 (GM FITC) (R37A): 106% | binding, WT hCD27 = 100 (GM FITC) (I46A): 81.9% | binding, WT hCD27 = 100 (GM FITC) (N88A): 132% | binding, WT hCD27 = 100 (GM FITC) (Q91A): 136% | binding, WT hCD27 = 100 (GM FITC) (R93A): 131% | binding, WT hCD27 = 100 (GM FITC) (E9A): 58.5%
B1: hCD27.15-6B (antibody, human IgG4 S228P, kappa, V domains shown)
VH: QVQLVQSGAEVKKPGASVKVSCKASGFIIKATYMHWVRQAPGQRLEWMGRIDPANGETKYDPKFQVRVTITADTSASTAYMELSSLRSEDTAVYYCARYAWYFDVWGQGTLVTVSS
VL: DIQMTQSPSSLSASVGDRVTITCRASENIYSFLAWYQQKPGKAPKLLIYHAKTLAEGVTSRFSGSGSGTDFTLTISSLQPEDSATYYCQHYYGSPLTFGQGTRLEIKR
notes: also called hCD27.15 (humanized 6B); humanized hCD27.15 (human IgG4, Clone 6B)
